Source: US9181543 (OBODIES, dated 2015)

Legend:
BSA [1] = target: T1, BSA (Bos taurus, UniProt P02769); assay: micropanning: monoclonal phage on BSA coated on a 96-well plate, bound phage eluted and counted
T1 construct: commercial protein; also called Bovine Serum Albumine

hen egg white lysozyme [2] = target: T2, hen egg white lysozyme (Gallus gallus, UniProt P00698 19-147); assay: micropanning: monoclonal phage on lysozyme coated on a 96-well plate, bound phage eluted and counted by bacterial infection
T2 construct: mature; The residue numbers E35, D52, W63, D101 and N103 fit mature numbering; also called hen egg lysozyme; Gallus gallus egg white lysozyme
Procedure: BSA (white), RNaseA (hatched) and hen egg white lysozyme (black) were immobilised and incubated with monoclonal phage samples. Bound particles were detected with a mouse anti-M13 primary antibody and an HRP-conjugated anti-mouse secondary antibody. […] A 96-well plate was coated with lysozyme (black bars) or BSA (white bars) and incubated with monoclonal phage samples from clones picked after 6 rounds of selection. Bound phage were eluted and counted by bacterial infection.
Hen egg white lysozyme is a small stable protein which is commercially available and has a number of medically important human homologues. After four rounds of panning on immobilised lysozyme, enrichment of bound phage was observed. A further two more rounds of panning were performed before clones were randomly picked and screened for binding to lysozyme. Monoclonal phage samples were then prepared and studies were undertaken to characterize binding in a 'micropanning' approach on lysozyme immobilised on a 96-well ELISA plate. Bound phage were eluted and counted. […] These clones were sequenced. Sequences for some of the clones were identical (L14 and L15; L4 and L18; L8 and L21) narrowing down the number of unique clones to six.

hen egg white lysozyme [3] = target: T2, hen egg white lysozyme; assay: SPR (Biacore), lysozyme amine-coupled to CM5 chip, L6 as analyte from 370 µM in 1:2 dilutions, steady-state response plot
Procedure: The ligand lysozyme was coupled to a CM5 Biacore sensor chip, at 30 µg/mL in sodium acetate buffer at pH 4.3 via the primary amine groups of the protein. The second of four flow cells available on the chip was activated with 35 µL, at 5 µL/min, of a 1:1 mixture of EDC:NHS (commercially available from Biacore). Lysozyme was coupled to the activated surface with successive injections of between 10-20 µL, until an adequate response was seen. Remaining uncoupled active groups on the chip were deactivated with an injection of ethanolamine-HCl. For analysis, OB3 13mRL L6 was organized in a 1:2 dilution series of six concentrations, beginning at 370 µM in running buffer, plus a buffer-only blank. Each of the seven samples were analyzed in duplicate for 1 min @ 25 µL/min, in random order, using the first flow cell as a reference. The response curves were visualized and processed using BIAevaluation (Biacore). Relative response at each concentration was averaged and plotted to determine Rmax and kD using Sigma Plot (Systat Software, Inc.).

hen egg white lysozyme [4] = target: T2, hen egg white lysozyme; assay: surface plasmon resonance; L8, from the crystal-structure interface table
hen egg white lysozyme [5] = target: T2, hen egg white lysozyme; assay: phage ELISA, multivalent display, immobilised hen egg white lysozyme, anti-M13 antibody and HRP-conjugated secondary antibody, absorbance
Procedure: (§1) Phage ELISA experiments were performed to analyse selected clones for binding to lysozyme. Ninety-six-well ELISA plates were coated with 5 ug/ml hen egg lysozyme, 5 ug/ml RNaseA or 1% BSA in PBS at 4° C. overnight. After two washes with TBS, plates were blocked with blocking buffer (5% skim milk in TBS) for one hour at RT before phage (10^9 cfu/well, derived from VCS-M13d3) were added in 2.5% skim milk-TBS-T. Plates were incubated for 2 hours at RT with agitation. After 10 washes with H_2O, mouse anti-M13 protein VIII diluted in blocking buffer was added and incubated for 1 h at RT. Plates were washed 4 times with H_2O and horseradish peroxidase (HRP)-coupled rabbit-anti-mouse immunoglobulins (Pierce) in blocking buffer were added to the wells and incubated for 1 h at RT. Wells were washed 4 times with H_2O and 50 ul substrate solution (1 mg/ml o-phenylene-diamine in PBS 0.030% H_2O_2) was added per well. The reaction was stopped after ~15 min by addition of 25 ul 2.5 M H_2SO_4 and the absorbance was recorded at 492 nm.
(§2) BSA (white), RNaseA (hatched) and hen egg white lysozyme (black) were immobilised and incubated with monoclonal phage samples. Bound particles were detected with a mouse anti-M13 primary antibody and an HRP-conjugated anti-mouse secondary antibody. […] Bound phage were eluted and counted by bacterial infection.

RNaseA [6] = target: T3, RNaseA (Bos taurus, UniProt P61823); assay: phage ELISA, multivalent display, immobilised RNaseA, anti-M13 antibody and HRP-conjugated secondary antibody, absorbance
T3 construct: commercial protein
T3 sequence (single chain, looked up): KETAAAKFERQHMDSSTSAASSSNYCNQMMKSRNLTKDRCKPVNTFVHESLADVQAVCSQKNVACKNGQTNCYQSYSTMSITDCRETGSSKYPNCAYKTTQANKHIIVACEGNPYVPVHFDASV
Procedure: as §1, §2

hen egg white lysozyme [7] = target: T2, hen egg white lysozyme; assay: phage ELISA on immobilised lysozyme, multivalent display
BSA [8] = target: T1, BSA; assay: phage ELISA, immobilised BSA, anti-M13 antibody and HRP-conjugated secondary antibody, absorbance
RNaseA [9] = target: T3, RNaseA; assay: phage ELISA, immobilised RNaseA, anti-M13 antibody and HRP-conjugated secondary antibody, absorbance

T2 sequence (P00698 19-147): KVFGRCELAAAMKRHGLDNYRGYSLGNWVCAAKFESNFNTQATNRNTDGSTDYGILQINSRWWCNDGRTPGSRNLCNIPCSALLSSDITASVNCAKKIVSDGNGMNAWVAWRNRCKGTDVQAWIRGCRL
T1 sequence (P02769 25-607 limits assumed): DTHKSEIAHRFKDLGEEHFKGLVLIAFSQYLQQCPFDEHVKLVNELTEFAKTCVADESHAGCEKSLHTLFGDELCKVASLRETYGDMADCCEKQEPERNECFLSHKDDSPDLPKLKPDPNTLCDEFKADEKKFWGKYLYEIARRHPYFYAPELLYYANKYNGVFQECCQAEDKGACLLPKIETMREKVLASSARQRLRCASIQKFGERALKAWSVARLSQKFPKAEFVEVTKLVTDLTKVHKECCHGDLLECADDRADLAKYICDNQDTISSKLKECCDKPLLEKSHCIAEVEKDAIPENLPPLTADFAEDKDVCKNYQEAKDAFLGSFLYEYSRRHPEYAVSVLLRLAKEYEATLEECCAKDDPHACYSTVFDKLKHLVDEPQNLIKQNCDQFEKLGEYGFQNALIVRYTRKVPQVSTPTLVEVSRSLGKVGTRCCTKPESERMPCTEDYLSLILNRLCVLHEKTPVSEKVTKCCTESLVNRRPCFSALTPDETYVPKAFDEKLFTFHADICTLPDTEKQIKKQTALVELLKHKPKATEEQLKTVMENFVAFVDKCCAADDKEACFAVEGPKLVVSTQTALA

B1: L16 (aspRS-OB 13mRL mutant) displayed on phage as pIII fusion (designed binder)
chain: VYPKKTHWTAEITPNLHGTEVVVAGWVASLVDGGPRKWVFVRDREGGAEVTVELTAGKTPDHLFKVFAELSREDVVVIKGIVEASKGLRWGVEIFPSEIWILNKAKPLPID
notes: Monoclonal phage, monovalent display, micropanning only; not shown: c-myc tag and pIII of phagemid pRPSP2 (display carriers at the C end)
Question: Does B1 bind (BSA [1])?
Answer: no binding

Question: Does B1 bind (hen egg white lysozyme [2])?
Answer: binds

B2: L6 (aspRS-OB 13mRL mutant) displayed on phage as pIII fusion (designed binder)
chain: VYPKKTHWTAEITPNLHGTEVVVAGWVEDLVDAGKTKWVFVCDREGGAQVIVELVAGKTPDHLFKVFAELSREDVVVIKGIVEASKSRAVGVEIFPSEIWILNKAKPLPID
notes: Monoclonal phage; Monovalent display in micropanning, multivalent display in ELISA; not shown: c-myc tag and pIII of phagemid pRPSP2 (display carriers at the C end)
Question: Does B2 bind (BSA [1])?
Answer: no binding

B3: OB3 13mRL L6, expressed and purified (designed binder)
chain: B2 chain
notes: Analyte in the Biacore experiment; also called Clone L6; selected OB-fold domain L6
Question: Which Kd (hen egg white lysozyme [3]) does the source give for B3 here?
Answer: 36 µM

B4: L8 (aspRS-OB 13mRL mutant) displayed on phage as pIII fusion (designed binder)
chain: VYPKKTHWTAEITPNLHGTEVVVAGWVASLGDYGRVKIVKVSDREGGAAVPVYLEAGKTPDHLFKVFAELSREDVVVIKGIVEASKGVGRGVEIFPSEIWILNKAKPLPID
notes: Monoclonal phage; also called L21; L33; not shown: c-myc tag and pIII of phagemid pRPSP2 (display carriers at the C end)
Question: Does B4 bind (BSA [1])?
Answer: no binding

B5: OBody L8, purified, GST tag removed (designed binder)
chain: B4 chain
notes: GST tag removed with rTEV protease; Used for co-crystallisation with lysozyme
Question: B5 was tested. Which Kd (hen egg white lysozyme [4]) did it give?
Answer: 36 µM

B6: L5 (aspRS-OB 13mRL mutant) displayed on phage as pIII fusion (designed binder)
chain: VYPKKTHWTAEITPNLHGTEVVVAGWVTDLVDAGTWKFVQVADREGGANVWVSLVAGKTPDHLFKVFAELSREDVVVIKGIVEASKLPSYGVEIFPSEIWILNKAKPLPID
notes: as for B2
Question: Does B6 bind (BSA [1])?
Answer: no binding

Question: Does B6 bind (hen egg white lysozyme [5])?
Answer: binds

B7: L14 (aspRS-OB 13mRL mutant) displayed on phage as pIII fusion (designed binder)
chain: VYPKKTHWTAEITPNLHGTEVVVAGWVSDLLDAGRAKYVFVYDREGGAEVMVTLAAGKTPDHLFKVFAELSREDVVVIKGIVEASKGWRDGVEIFPSEIWILNKAKPLPID
notes: Monoclonal phage; also called L15; L32; not shown: c-myc tag and pIII of phagemid pRPSP2 (display carriers at the C end)
Question: Does B7 bind (BSA [1])?
Answer: no binding

Question: Does B7 bind (RNaseA [6])?
Answer: binds

Question: Does B7 bind (hen egg white lysozyme [5])?
Answer: binds

B8: L34 (aspRS-OB 13mRL mutant) displayed on phage as pIII fusion (designed binder)
chain: VYPKKTHWTAEITPNLHGTEVVVAGWVVGLMDEGALKGVEVRDREGGAPVEVTLEAGKTPDHLFKVFAELSREDVVVIKGIVEASKGYGSGVEIFPSEIWILNKAKPLPID
notes: Monoclonal phage, multivalent display, ELISA; not shown: c-myc tag and pIII of phagemid pRPSP2 (display carriers at the C end)
Question: What does the source list for B8?
Answer: binding result (hen egg white lysozyme [7]): binds; binding result (BSA [8]): no binding (tested: 10^9 cfu/well); binding result (RNaseA [9]): no binding (tested: 10^9 cfu/well)
